These results are taken from patent publication US20190203229, “cis AND trans REQUIREMENTS FOR […] RESOLUTION OF HUMAN BOCAVIRUS 1” (University of Iowa Research Foundation, published 2019).

The data set has as its target GST (UniProt P08515 P08515:1-218). Description: EMSA; negative control. The note with it: label: 32P or biotin. A general note: In EMSA bound probe runs differently from free probe, usually more slowly.

GST, sequence (P08515 whole entry, one chain of several): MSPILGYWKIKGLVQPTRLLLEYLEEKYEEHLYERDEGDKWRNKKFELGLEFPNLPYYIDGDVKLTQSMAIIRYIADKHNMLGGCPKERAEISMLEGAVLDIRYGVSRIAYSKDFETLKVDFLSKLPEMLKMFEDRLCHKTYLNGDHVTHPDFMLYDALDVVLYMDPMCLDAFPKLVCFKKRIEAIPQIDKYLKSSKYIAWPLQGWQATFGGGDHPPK

B1: B19V Ori (dsDNA)
DNA 1: GCCGCCGGTCGCCGCCGGTAGGCGGGACTTCCGGTACA
DNA 2: TGTACCGGAAGTCCCGCCTACCGGCGGCGACCGGCGGC
Regarding B1, the binding result is listed as “no binding”.
